The test has as its target T1, oxidized wild type Prdx6 (H2O2-treated, over-oxidized protein) (human), P30041.
T1 chain: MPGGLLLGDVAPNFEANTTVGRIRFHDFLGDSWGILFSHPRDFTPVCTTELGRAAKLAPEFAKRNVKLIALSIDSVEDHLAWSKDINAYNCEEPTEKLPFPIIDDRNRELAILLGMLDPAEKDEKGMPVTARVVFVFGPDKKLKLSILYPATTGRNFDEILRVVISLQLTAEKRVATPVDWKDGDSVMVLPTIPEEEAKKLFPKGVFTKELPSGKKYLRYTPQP
As to the kind of experiment: AUC. The following applies: remark: other sources report otherwise.

B1: oxidized wild type Prdx6 (H2O2-treated, over-oxidized protein), P30041 1-224 (natural protein)
chain: MPGGLLLGDVAPNFEANTTVGRIRFHDFLGDSWGILFSHPRDFTPVCTTELGRAAKLAPEFAKRNVKLIALSIDSVEDHLAWSKDINAYNCEEPTEKLPFPIIDDRNRELAILLGMLDPAEKDEKGMPVTARVVFVFGPDKKLKLSILYPATTGRNFDEILRVVISLQLTAEKRVATPVDWKDGDSVMVLPTIPEEEAKKLFPKGVFTKELPSGKKYLRYTPQP
modifications: here or on the partner: C47 over-oxidized (-SOOH/-SOOOH) by H2O2 treatment; C47 over-oxidized (-SOOH/-SOOOH) by H2O2 treatment
The stoichiometry N is a count of units in the complex or per binding partner. In turn, B1 came in with a stoichiometry N of 2.

(Values after PMC4844822.)
